Measurements taken from patent US20250127857A1, “A COMPOSITION COMPRISING IL-36 AND/OR IL-18 FOR USE IN TREATING OCULAR DISORDERS” (THE PROVOST, FELLOWS, FOUNDATION SCHOLARS, & THE OTHER …, priority 2021, published 2025).

Experiments:
Format in all cases: cell-based, human
[1] = tested on: HRMEC; assay: Proliferation assays (nuclei cell count, MTS/PMS); details: 24 hours
Experimental: HRMEC were seeded on coverslips in 6 well plates at a density of 5×10^4 cells/ml and allowed to grow overnight in growth media. They were then washed in PBS and placed in reduced serum media and incubated with treatment for 24 hour. The coverslip was then washed in PBS, fixed in ice cold methanol and stained with Hoechst (1:10000). The coverslips were then affixed to slides and imaged via fluorescence. N=10 images per slip were taken and averaged to give a cell count per coverslip. For the MTS/PMS assay (Promega) cells were seeded at a density of 5×10^4 cells/ml in a 96 well plate. They were allowed to grow overnight in complete growth media before being washed and placed in low-serum media with the treatment indicated for 24 hours before the MTS/PMS assay was carried out as per manufacturer's protocol.

[2] = tested on: HRMEC transwell monolayer; assay: Inhibition of translation (cycloheximide) with 70 kDa FITC dextran flux; details: 100 ng/ml cytokine plus 10 μM cycloheximide (CHX), 6 hr
Experimental: HRMEC were grown in transwells as above. Once polarised, HRMEC were treated with 10 μM of the translation inhibitor cycloheximide (Sigma) and/or IL-36 cytokine. 70 kDa FITC dextran (Sigma) diluted to 1 mg/ml in low serum media was placed in apical chamber and performing a FITC flux assay as described above.

[3] = tested on: HRMEC transwell monolayer; assay: Trans-endothelial electrical resistance (TEER) measurement; details: 100 ng/ml, 6 hr, vs untreated control
[4] = tested on: HRMEC transwell monolayer; assay: Permeability assay (4 kDa FITC dextran flux, Papp); details: 100 ng/ml, 6 or 24 hour exposure
Experimental: HRMEC were grown on transwells (Corning) for 5-7 days to polarize. The cells were placed in low serum media and treated with IL-36 cytokines for 6 or 24 hours, before 4 kDa FITC dextran (Sigma) diluted to 1 mg/ml in low serum media was placed in the apical chamber. Sampling aliquots were periodically removed from the basal chamber and placed in a 96 well plate. The basolateral chamber was then replenished with fresh media. This was repeated at 20-minute intervals for 2 hours. The fluorescence of FITC dextran was measured using a fluorescent plate-reader (BioTek) at an excitation wavelength of 485 nm and an emission wavelength of 520 nm. Relative fluorescence units (RFU) were converted to ng/ml using a FITC dextran standard curve and corrected for background fluorescence and serial dilutions over the course of the experiment. The apparent permeability coefficient (Papp) was calculated as follows: […]
where dQ/dT is the apparent rate of FITC dextran appearance in the basolateral chamber, A (cm^2) is the surface area of the insert, C0 (mg/ml) is the initial FITC-dextran concentration in the apical chamber. dQ/dT is the slope (y=mx+c) calculated by plotting the cumulative amount (Q) against time(s).

[5] = tested on: VE-cadherin; assay: Western blot for VE-cadherin protein expression; details: HRMEC, 24 h
Experimental: (§1) FIG. 6 illustrates IL-36 cytokines alter the protein levels of adherens and tight junction components in endothelial cells, wherein (A, B) are Western blot for VE-cadherin protein expression in response to (A) IL-36α, (B) IL-36β treatment for 24 hours at indicated doses in HRMEC, representative N=4 experiments; (C, D) are Western blot for the expression of tight junction proteins ZO-1, tricellulin and occludin in response to (C) IL-36α and (D) IL-36β treatment at indicated concentrations for 24 hours in HRMEC, representative of N=3 experiments; (E) is rate of flux of 70 kDa FITC dextran through HRMEC transwell monolayer with 6 hr pretreatment of 100 ng/ml IL-36α and/or 10 μM cycloheximide (CHX), with treatment applied to apical and basal chambers, representative of N=3 experiments; (F) is permeability apparent for HRMEC treated with IL-36α and/or 10 μM CHX, calculated as stated previously; (G) is rate of flux of 70 kDa FITC dextran through HRMEC transwell monolayer with 6 hr pretreatment of 100 ng/ml IL-36β and/or 10 μM CHX, with treatment applied to apical and basal chambers, representative of N=3 experiments; (H) is permeability apparent for HRMEC treated with IL-36β and/or CHX, calculated as stated previously, wherein T-tests were performed as statistical analysis;
(§2) Protein was extracted from cells using RIPA buffer containing protease inhibitors (Sigma). […]

[6] = tested on: VEGFR2; assay: qPCR of VEGFR2 expression in HRMEC treated with IL-36 cytokines; details: treatment over timepoints
Text: Primers used were sourced from Sigma.

[7] = tested on: HRMEC; assay: HRMEC scratch wound healing / migration with IL-36 cytokines; details: treatment applied at time of scratch, 100 ng/ml
Experimental: FIG. 4 illustrates IL-36 cytokines promote endothelial cell migration, wherein (A, B) are representational images of the HRMEC ‘scratch’ healing with (A) IL-36α (B) IL-36β treatment compared to control at 10× magnification, wherein purple dotted lines equate to the size of the wound as imaged using Image J; (C) is rate of wound healing in HRMEC treated with IL-36α expressed as % wound closure, representational of N=4 experiments, wherein two-way ANOVA was performed as statistical test; (D) is a comparison of the level of wound healing between untreated (unt.) and 100 ng/ml IL-36α at 4 and 24 hr post scratch, consolidated N=4 experiments, wherein two-way ANOVA with multiple comparison was performed as statistical test; (E) is rate of wound healing in HRMEC treated with IL-36β expressed as % wound closure, representational of N=4 experiments, wherein two-way ANOVA with multiple comparison performed as statistical test; (F) is a comparison of the level of wound healing between no treatment and 100 ng/ml IL-36β at 4 and 24 hr post scratch, consolidated N=4 experiments, wherein two-way ANOVA with multiple comparison was performed as statistical test;
Cells were seeded on to a 12-well plate and grown until they reached confluency. […] The area within the scratch was quantified using ImageJ software, and each timepoint was normalised to its baseline and expressed as % closure.

[8] = tested on: ZO-1, tricellulin and occludin; assay: Western blot for tight junction proteins; details: HRMEC, 24 h, indicated concentrations
Experimental: as §1, §2

[9] = tested on: HRMEC; assay: Tube formation assay (Matrigel); details: HRMEC on matrigel, 100 ng/ml, 4 hours, vs unstimulated control
Experimental: Cells were seeded 2 days prior to the experiment in a T75 in complete growth media and allowed to become ˜80% confluent. They were placed in low serum media overnight prior to use in the experiment. 96 well plates were coated with 60 μl of Matrigel Basement Membrane Matrix (Corning) and placed in a 370C incubator for 30 minutes to set as per manufacturer's instructions. HRMEC were then seeded onto the plates at a density of 8×10^4 cells/ml and treated as indicated with cytokine in triplicate. The plates were placed in an Incucyte and phase contrast images of the wells were taken at 10× for 30 minute intervals. The angiogenesis analyser plug-in for ImageJ was used to analyse the images.

B1: IL-36α: recombinant human (rh) IL-36α (Peprotech) (protein, UniProt Q9UHA7 6-158, looked up)
Interleukin-36 alpha: KIDTPQQGSIQDINHRVWVLQDQTLIAVPRKDRMSPVTIALISCRHVETLEKDRGNPIYLGLNGLNLCLMCAKVGDQPTLQLKEKDIMDLYNQPEPVKSFLFYHSQSGRNSTFESVAFPGWFIAVSSEGGCPLILTQELGKANTTDFGLTMLF
[1]; 100 ng/ml
  number of cells (stained nuclei count): increase in the number of cells
[1]; 50 or 100 ng/ml
  proliferation (MTS/PMS assay): significant increase in proliferation
[1]; VEGF 50 ng/ml positive control
  proliferation compared with VEGF (MTS/PMS assay): neither cytokine was as effective as VEGF alone
[2]
  IL-36-dependent barrier enhancement under inhibition of protein translation: absolute loss
[3]
  TEER: significantly increased TEER
[4]
  rate of FITC-dextran migrating across the HRMEC monolayer: notably decreased
[5]
  VE-cadherin protein expression: Increased expression of VE-cadherin
[6]
  VEGFR2 expression: reduce VEGFR2 expression
[7]
  rate of wound closure and cell migration: increased the rate of wound closure and cell migration significantly
[8]
  expression of ZO-1, tricellulin and occludin protein: dose dependent increase in expression
[9]
  length of tubes: potential ability to increase the length of the tubes
